In article PMC6294562:

Target: thrombin (alpha-thrombin) (UniProt P00734;P00734 328-363;364-622)
Experiment: X-ray crystallography

CGCCTAGGTTGGGTAGGGTGGTGGCG (structured_DNA) [NU172 (ARC2172)]
binding result: binds
